Source: patent publication US20030124664A1

Molecular target: human growth hormone (hGH) with the N-terminal phenylalanine, expressed and secreted from plasmid phGH4R (human) (UniProt P01241)
Assay: cell-based or functional assay

human growth hormone (hGH) with the N-terminal phenylalanine, expressed and secreted from plasmid phGH4R (human), sequence (P01241 27-217): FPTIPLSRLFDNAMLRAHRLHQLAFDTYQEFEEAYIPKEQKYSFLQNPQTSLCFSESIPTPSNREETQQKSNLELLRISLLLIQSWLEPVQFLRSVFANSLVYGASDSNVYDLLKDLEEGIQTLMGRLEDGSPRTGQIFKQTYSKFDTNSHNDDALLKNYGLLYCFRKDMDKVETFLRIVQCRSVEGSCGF

- Area % des-phe hGH, control strain lysate, 37° C., 0 h (LC-MS): 0.36 Area %
- Area % des-phe hGH, control strain lysate, 37° C., 15 h (LC-MS): 46.8 Area %
- Area % des-phe hGH, control strain lysate, 37° C., 24 h (LC-MS): 55.3 Area %
- Area % des-phe hGH, control strain lysate, RT, 0 h (LC-MS): 0.36 Area %
- Area % des-phe hGH, control strain lysate, RT, 15 h (LC-MS): 1.24 Area %
- Area % des-phe hGH, control strain lysate, RT, 24 h (LC-MS): 2.15 Area %
- Area % des-phe hGH, control strain lysate, RT, 42 h (LC-MS): 3 Area %
B1: native-sequence aminopeptidase b2324 (product of the E. coli chromosomal yfcK gene) (enzyme)
chain: MRSLTHIAKIEPPPVRRVTYVKHYSIQPANLEFNAEGTPVSRDFDDVYFSNDNGLEETRYVFLGGNQLEVRFPEHPHPLFVVAESGFGTGLNFLTLWQAFDQFREAHPQAQLQRLHFISFEKFPLTRADLALAHQHWPELAPWAEQLQAQWPMPLPGCHRLLLDEGRVTLDLWFGDINELTSQLDDSLNQKVDAWFLDGFAPAKNPDMWTQNLFNAMARLARPGGTLATFTSAGFVRRGLQDAGFTMQKRKGFGRKREMLCGVMEQTLPLPCSAPWFNRTGSSKREAAIIGGGIASALLSLALLRRGWQVTLYCADEAPALGASGNRQGALYPLLSKHDEALNRFFSNAFTFARRFYDQLPVKFDHDWCGVTQLGWDEKSQHKIAQMLSMDLPAELAVAVEANAVEQITGVATNCSGITYPQGGWLCPAELTRNVLELAQQQGLQIYYQYQLQNLSRKDDCWLLNFAGDQQATHSVVVLANGHQISRFSQTSTLPVYSVAGQVSHIPTTPELAELKQVLCYDGYLTPQNPANQHHCIGASYHRGSEDTAYSEDDQQQNRQRLIDCFPQAQWAKEVDVSDKEARCGVRCATRDHLPMVGNVPDYEATLVEYASLAEQKDEAVSAPVFDDLFMFAALGSRGLCSAPLCAEILAAQMSDEPIPMDASTLAALNPNRLWVRKLLKGKAVKAG
